Data published in paper PMC9214244, “Multivalent Interaction of Beta-Catenin With its Intrinsically Disordered Binding Partner Adenomatous Polyposis Coli” (Frontiers in Molecular Biosciences, 2022).

Columns and labels:
[1] = biological target: pAPCabc with the flexible linker (FL) inserted between residues 1,478 and 1,479, fluorescein-labelled at Cys 1501 (UniProt P25054); assay: fluorescence polarisation; fluorescence anisotropy; β-catenin titrated into 10 nM fluorescein-labelled APC construct; PBS, 1 mM DTT; 15°C; adjusted anisotropy fitted to a Hill equation
[2] = biological target: APCabc with the rigid linker (RL) inserted between residues 1,500 and 1,501, fluorescein-labelled at Cys 1501 (UniProt P25054); assay: as above
[3] = biological target: APCabc, third 20aa repeat (R3) region of APC with subdomains a, b and c, fluorescein-labelled at Cys 1501 (UniProt P25054); assay: as above
[4] = biological target: pAPCabc D1486S, fluorescein-labelled at Cys 1501 (UniProt P25054); assay: as above
[5] = biological target: pAPCc, phospho domain c of APC R3 in the phosphomimetic form, fluorescein-labelled at Cys 1501 (UniProt P25054); assay: as above
[6] = biological target: pAPCabc with the flexible linker (FL) inserted between residues 1,500 and 1,501, fluorescein-labelled at Cys 1501 (UniProt P25054); assay: as above
[7] = biological target: pAPCabc with the rigid linker (RL) inserted between residues 1,500 and 1,501, fluorescein-labelled at Cys 1501 (UniProt P25054); assay: as above
[8] = biological target: APCabc with the flexible linker (FL) inserted between residues 1,478 and 1,479, fluorescein-labelled at Cys 1501 (UniProt P25054); assay: as above
[9] = biological target: APCabc with the flexible linker (FL) inserted between residues 1,500 and 1,501, fluorescein-labelled at Cys 1501 (UniProt P25054); assay: as above
[10] = biological target: APCbc, APC R3 subdomains b and c (residues 1,483–1,533), fluorescein-labelled at Cys 1501 (UniProt P25054); assay: as above
[11] = biological target: pAPCabc with the polyproline linker (PP) inserted between residues 1,500 and 1,501, fluorescein-labelled at Cys 1501 (UniProt P25054); assay: as above
[12] = biological target: pAPCabc, full-length R3 domain APCabc containing all five phosphomimetics, fluorescein-labelled at Cys 1501 (UniProt P25054); assay: as above
[13] = biological target: APCabc, third 20aa repeat (R3) region of APC with subdomains a, b and c, fluorescein-labelled at Cys 1501 (UniProt P25054); assay: stopped-flow fluorescence; association: 25 nM fluorescein-labelled APC mixed 1:1 by volume with 250-2,000 nM β-catenin (pseudo first-order); dissociation: pre-formed 1:1 complex (200 nM) mixed with 10 times molar excess of the same APC construct; PBS, 1 mM DTT; 15°C
[14] = biological target: pAPCabc with the flexible linker (FL) inserted between residues 1,500 and 1,501, fluorescein-labelled at Cys 1501 (UniProt P25054); assay: as above
[15] = biological target: pAPCabc with the rigid linker (RL) inserted between residues 1,500 and 1,501, fluorescein-labelled at Cys 1501 (UniProt P25054); assay: as above
[16] = biological target: pAPCabc with the polyproline linker (PP) inserted between residues 1,500 and 1,501, fluorescein-labelled at Cys 1501 (UniProt P25054); assay: as above

Chain of armadillo (ARM) repeat domain of human β-catenin (residues 134–671) (P35222 other isoform, or with tags, fused parts or gaps): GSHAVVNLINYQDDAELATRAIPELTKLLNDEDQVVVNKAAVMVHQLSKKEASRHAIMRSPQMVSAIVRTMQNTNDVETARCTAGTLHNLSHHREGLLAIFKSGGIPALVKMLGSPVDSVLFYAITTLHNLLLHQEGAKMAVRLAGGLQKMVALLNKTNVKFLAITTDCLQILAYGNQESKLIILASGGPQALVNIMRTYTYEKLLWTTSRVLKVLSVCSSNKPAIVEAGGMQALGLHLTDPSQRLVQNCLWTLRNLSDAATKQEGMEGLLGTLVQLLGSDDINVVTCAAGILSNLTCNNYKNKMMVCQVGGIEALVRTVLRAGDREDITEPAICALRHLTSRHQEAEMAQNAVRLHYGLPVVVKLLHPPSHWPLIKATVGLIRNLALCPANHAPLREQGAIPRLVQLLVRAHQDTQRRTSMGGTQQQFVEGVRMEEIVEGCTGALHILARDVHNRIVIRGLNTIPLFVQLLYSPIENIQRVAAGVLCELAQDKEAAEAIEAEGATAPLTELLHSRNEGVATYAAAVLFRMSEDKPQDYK

armadillo (ARM) repeat domain of human β-catenin (residues 134–671) (from UniProt P35222 134-671) (domain or fragment)
Kd [1]: 18.7 nM
Kd [2]: 31.2 nM
Kd [3]: 16.5 nM
Kd [4]: 21.4 nM
Kd [5]: 160 nM
Kd [6]: 10.9 nM
Kd [7]: 10.8 nM
Kd [8]: 21.5 nM
Kd [9]: 28.3 nM
Kd [10]: 196 nM
Kd [11]: 16.4 nM
Kd [12]: 5.3 nM
koff fast [13]: 0.46 s⁻¹
koff slow [13]: 0.11 s⁻¹
kon [13]: 4.92e+07 M⁻¹ s⁻¹
time constant τ (from the fast off-rate) [13]: 1.54 s
koff fast [14]: 0.16 s⁻¹
koff slow [14]: 0.0085 s⁻¹
kon [14]: 1.01e+08 M⁻¹ s⁻¹
time constant τ (from the fast off-rate) [14]: 4.45 s
koff fast [15]: 0.21 s⁻¹
koff slow [15]: 0.0122 s⁻¹
kon [15]: 1.02e+08 M⁻¹ s⁻¹
time constant τ (from the fast off-rate) [15]: 3.52 s
koff fast [16]: 0.44 s⁻¹
koff slow [16]: 0.018 s⁻¹
kon [16]: 8.97e+07 M⁻¹ s⁻¹
time constant τ (from the fast off-rate) [16]: 1.59 s
